# Values quoted from earlier work in PMC6201748.
# pKd: −log10 of the molar value.
# Target: ZipA (Escherichia coli) (UniProt P77173)
# Experiment: SPR
# Sequence of FtsZ (P0A9A6 whole entry): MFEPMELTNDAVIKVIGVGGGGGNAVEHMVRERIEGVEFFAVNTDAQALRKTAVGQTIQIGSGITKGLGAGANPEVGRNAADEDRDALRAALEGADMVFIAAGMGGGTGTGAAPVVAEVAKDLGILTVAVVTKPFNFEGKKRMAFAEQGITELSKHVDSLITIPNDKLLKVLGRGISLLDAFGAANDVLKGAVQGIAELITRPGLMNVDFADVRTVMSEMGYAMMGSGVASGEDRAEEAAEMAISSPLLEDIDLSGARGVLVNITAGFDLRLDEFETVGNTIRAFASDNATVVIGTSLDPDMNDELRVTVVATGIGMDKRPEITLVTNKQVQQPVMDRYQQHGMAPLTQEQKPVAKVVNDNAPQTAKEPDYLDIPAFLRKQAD
substance,measurement,value
FtsZ (from UniProt P0A9A6),pKd,5.15
